B1: LINE1-full (parent)
chain: UACGUAGGUGGUUUUCCCCUGAUAGUGCUAAGGGGGCCUGGAAGUUUGGACUGGGCAGAGCUCAACACAGCGUGGCAAAGUGGCUGUGGCUAGACUGCCUCUCUGGAUUCCUCGUCACUCAGCAGGGCAUCUCUGAGAGAAAUGCC

Variants of B1 are the subject of this data set. Kind of data set: self-cleavage, relative activity (ratio to wild type); higher = more cleavage; in vitro, sequencing; the parent is a self-cleaving ribozyme.
Turning to A78U U91G, the self-cleavage was found to be 0.11.

On to G83A U132A, for which the self-cleavage came to 1.09. On to G83A A140G, for which the self-cleavage came out at 0.49. Turning to U81A A107G, the self-cleavage worked out at 1.84. The value for A78G G93A was 0.04; that for U81C G139A was 1.63; that for A79G U91A was 0.32. With A79U C84A the figure was 0.21; with A78U A107G, 2.47.

Regarding A78G A79U, the self-cleavage was determined as 0.52. With U81G A141G the figure was 1.85.

U81C U130C: the self-cleavage came out at 1.88.

Consider U81C U130A, for which the self-cleavage was found to be 1.27. The value for U81C C95U was 0.26; that for U81C G89A was 0.06. For U81A U134C, the self-cleavage came out at 2.26. With G83A G127A the figure was 0.52. With A79G U143C the figure was 1.47. With U81A U102C the figure was 2.18; with A79G U104C, 1.22; with A79G U104A, 1.35.

Consider A79G U104G, for which the self-cleavage is 1.7. With A79G U115A the figure was 1.4; with A78G A94G, 0.49. With A78G A94U the figure was 0.19. Regarding G80U A124G, the self-cleavage was found to be 1.69. In the case of A79C A136G, the self-cleavage is 1.93. In the case of A78G G135A, the self-cleavage came out at 1.17.

Turning to G80A G89A, the self-cleavage stood at 0.07. For the variant U81C G144A, the self-cleavage was 0.42. With A78G A124G the figure was 0.99; with A78G A124C, 1.59; with G80A G88U, 0.15. With A79G G135A the figure was 1.38; with A79G A142U, 2.04; with A79C, 1.57.

Turning to A79U, the self-cleavage stood at 1.85. The value for A79G was 1.25; that for A79G G86U was 0.1. Consider G80U U132A, for which the self-cleavage amounted to 2.3. With G82A A142G, the self-cleavage was 2.1. With U81G U134G, the self-cleavage was 1.73.

Turning to A78G A129U, the self-cleavage is 1.17. With U81A U85C the figure was 0.16. The value for G83A G144U was 1.55; that for A78U A79G was 0.74; that for U81C U85C was 0.12. With A79C U85C the figure was 0.58. Regarding A78G U119G, the self-cleavage was determined as 1.04. The value for A78G A140U was 1.38; that for A78G A140G was 1.18; that for A79U U102A was 2.23.

Regarding G82A A141G, the self-cleavage stood at 1.8. The value for U81G C113U was 1.99; that for A78C A121G was 2.59. The value for A79G A107C was 0.92; that for A79G A107G was 1.21. With A79U G114A the figure was 1.79; with A79C U119A, 1.01. As to G83A U100C, the self-cleavage stood at 1.21. The value for A79U U91C was 1.04; that for A79G C118U was 2.23. The value for G80A U100C was 1.42; that for A79U C116A was 1.49. The value for U81A A92G was 0.15; that for G83A A121C was 0.67; that for A79G C98G was 0.12. With A78U G135A, the self-cleavage is 1.8. The value for A78G G83A was 0.25. A79C A141G: the self-cleavage was 1.96.

A79G G126A: the self-cleavage was determined as 1.51.

For the variant U81C G127A, the self-cleavage worked out at 2.07.

As to A77U U134A, the self-cleavage came to 0.57. The value for A79G C128A was 0.46; that for G82A A94G was 0.26; that for U81C A141G was 1.07. The value for A78C G122A was 1.41.

In the case of G82A C99A, the self-cleavage worked out at 0.78. The value for U81G G122U was 1.42. With A78G U102C the figure was 1.53. With A78G U102G the figure was 0.2; with A78U A142G, 1.87. In the case of A78U A142U, the self-cleavage came out at 2.12. The value for A79G U81A was 2.28. With A79G U81C the figure was 0.27; with U81A A121U, 1.7. With U81A A121G the figure was 2.65. Take G80U U134A: the self-cleavage was 1.45. The value for A79U U115C was 1.12; that for G80A U112C was 1.43; that for U81G U104C was 0.26. Regarding A79G G83U, the self-cleavage worked out at 0.2. The value for U81C U119C was 1.84; that for A78G U132C was 1.39; that for A78G U132A was 1.62.

G82A A136G: the self-cleavage amounted to 2.28. Consider A79G C110U, for which the self-cleavage is 2.15.

In the case of A79G C110A, the self-cleavage stood at 1.29. The value for U81A A124U was 1.78; that for U81C C101U was 2.14. In the case of A79G G144C, the self-cleavage was found to be 0.77. The value for G80C C98U was 0.26; that for A79U U112C was 1.95; that for A79U G125A was 1.6. With G80A U102C the figure was 1.92; with A79G A136G, 1.42. With A79G C116U the figure was 1.63. In the case of G83U A141G, the self-cleavage stood at 0.99. The value for G83A A142G was 0.97; that for A78G C98G was 0.11; that for A78G C98U was 0.47. The value for A78G U100A was 0.16; that for A78G U100C was 2.09; that for A79G U87G was 0.07. The value for A78U A92U was 1.02. Turning to A78U U104C, the self-cleavage was found to be 0.87. Turning to A78U U104A, the self-cleavage turned out to be 1.8.

Consider A79G C113A, for which the self-cleavage is 0.14. The value for G83A U134C was 1.13; that for U81C A129G was 1.56; that for A78G G89C was 0.07. For the variant A78G G114C, the self-cleavage was found to be 1.09. With A78G G114A the figure was 0.83; with A78C A117G, 2.21.

Turning to G83A A92U, the self-cleavage stood at 0.27. The value for U81C G88A was 0.12; that for U81C G88U was 0.05; that for A78U U87C was 0.84.

As to U81A U130A, the self-cleavage was 1.3.

In the case of G82A U104C, the self-cleavage is 0.83. The value for G82A A92G was 0.04; that for A79G A124G was 0.62. For the variant G80A A124U, the self-cleavage turned out to be 2.27.

As to U81A G114C, the self-cleavage is 2.67. For the variant G82A U134G, the self-cleavage was found to be 1.08. The value for G80A A121C was 2.91; that for G82A A129U was 1.21; that for G82A A129G was 2.28.

For U81C A121C, the self-cleavage was determined as 1.37. The value for U81C G125U was 1.5.

Take A78G C84A: the self-cleavage came to 0.09. The value for G80A A136U was 2.49; that for U81C G126U was 1.4; that for G80A A141G was 1.89. For the variant A79G U119G, the self-cleavage was 1.31. The value for A79G U119C was 1.48; that for A79G G122A was 1.31; that for A79U A141U was 2.36. The value for A79G U112A was 1.54; that for A78G G80A was 2.49; that for A79G A129U was 1.16.

On to A79C U91A, for which the self-cleavage was determined as 0.94. The value for G80A C128U was 1.9. Regarding G82A U85C, the self-cleavage amounted to 0.23. As for G82A U85A, the self-cleavage is 0.14. The value for G80A G86A was 0.05; that for A78G U104C was 1.82. With G82A U102C the figure was 1.57; with A78G U130C, 1.29.

With A78G U130G, the self-cleavage is 1.88. Turning to A78G U130A, the self-cleavage came out at 1.1.

On to A78C U102C, for which the self-cleavage was 2.53. With A78G A117G the figure was 0.89. Regarding U81A U109A, the self-cleavage was 2.28. As to G83C U132A, the self-cleavage stood at 0.73. With U81A U112C the figure was 2.32. The value for A78G G144A was 1.3.

The values above are taken from the RNAGym collection of RNA variant scans (doi:10.7554/elife.90254).
